Experimental data from publication PMC8277605, “Binding of gephyrin to microtubules is regulated by its phosphorylation at Ser270” (Histochemistry and Cell Biology, 2021).

Key:
[1] = target: microtubules polymerized from endogenous tubulin of HEK293T cell extracts (human (endogenous in HEK293T)) (UniProt P68363); assay: co-sedimentation; MT co-sedimentation assay with HEK293T lysates only (gephyrin alone, gephyrin or mutant gephyrin with CbII(-SH3)); endogenous cellular tubulin polymerized with 2 mM GTP and 20 uM paclitaxel in MES buffer; 100,000 x g; immunoblot with mAb7a, R-20, DM1alpha; band ratios standardized to the tubulin signal
[2] = target: the molecule itself; assay: native gel or EMSA; blue-native PAGE of 100 ug cytosol per lane, second dimension 12.5% SDS-PAGE, Western blot for gephyrin; NativeMARK standard

microtubules polymerized from endogenous tubulin of HEK293T cell extracts (human (endogenous in HEK293T)), sequence (P68363 whole entry, chain 1 of 2): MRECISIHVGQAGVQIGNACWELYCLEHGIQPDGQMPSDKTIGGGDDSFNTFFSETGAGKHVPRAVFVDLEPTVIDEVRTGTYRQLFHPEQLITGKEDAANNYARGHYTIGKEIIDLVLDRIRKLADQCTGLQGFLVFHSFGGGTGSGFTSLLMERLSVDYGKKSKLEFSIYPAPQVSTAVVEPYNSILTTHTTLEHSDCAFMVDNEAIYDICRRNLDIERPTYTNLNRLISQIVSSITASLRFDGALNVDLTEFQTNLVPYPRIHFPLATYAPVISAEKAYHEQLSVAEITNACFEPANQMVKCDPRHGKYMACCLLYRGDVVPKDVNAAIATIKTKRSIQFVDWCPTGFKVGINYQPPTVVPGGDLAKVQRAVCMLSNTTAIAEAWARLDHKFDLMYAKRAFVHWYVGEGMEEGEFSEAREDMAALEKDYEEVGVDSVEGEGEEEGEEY
microtubules polymerized from endogenous tubulin of HEK293T cell extracts (human (endogenous in HEK293T)), sequence (P07437 whole entry, chain 2 of 2, further chain): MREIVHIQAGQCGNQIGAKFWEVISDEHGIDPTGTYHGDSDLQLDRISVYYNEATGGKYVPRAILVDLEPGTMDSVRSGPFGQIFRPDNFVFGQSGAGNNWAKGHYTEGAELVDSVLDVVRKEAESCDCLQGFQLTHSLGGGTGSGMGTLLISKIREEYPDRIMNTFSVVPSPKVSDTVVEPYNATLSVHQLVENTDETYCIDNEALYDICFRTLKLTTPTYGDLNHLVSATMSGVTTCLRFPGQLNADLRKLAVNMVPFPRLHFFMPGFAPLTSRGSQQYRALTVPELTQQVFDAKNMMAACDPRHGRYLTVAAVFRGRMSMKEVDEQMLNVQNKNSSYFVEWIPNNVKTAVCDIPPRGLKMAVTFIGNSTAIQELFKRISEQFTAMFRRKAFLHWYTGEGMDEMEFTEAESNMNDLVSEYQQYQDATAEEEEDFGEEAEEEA

| Molecule | ratio of the mAb7a signal in the insoluble to soluble fraction [1] | stoichiometry N [2] |
| --- | --- | --- |
| recombinant gephyrin (P1), N-terminally 6-histidine-tagged (natural protein) | 1.5 | – |
| recombinant gephyrin (P1) phosphorylated at Ser270 (detected by mAb7a) (natural protein) | 0.17 | – |
| gephyrin, endogenous in HEK293T cells (natural protein, human (endogenous in HEK293T), UniProt Q9NQX3 1-736, looked up, human gephyrin, endogenous in HEK293T cells; also called endogenous gephyrin; source: endogenous, HEK293T protein extract (cytosol)) MATEGMILTNHDHQIRVGVLTVSDSCFRNLAEDRSGINLKDLVQDPSLLGGTISAYKIVPDEIEEIKETLIDWCDEKELNLILTTGGTGFAPRDVTPEATKEVIEREAPGMALAMLMGSLNVTPLGMLSRPVCGIRGKTLIINLPGSKKGSQECFQFILPALPHAIDLLRDAIVKVKEVHDELEDLPSPPPPLSPPPTTSPHKQTEDKGVQCEEEEEEKKDSGVASTEDSSSSHITAAAIAAKIPDSIISRGVQVLPRDTASLSTTPSESPRAQATSRLSTASCPTPKVQSRCSSKENILRASHSAVDITKVARRHRMSPFPLTSMDKAFITVLEMTPVLGTEIINYRDGMGRVLAQDVYAKDNLPPFPASVKDGYAVRAADGPGDRFIIGESQAGEQPTQTVMPGQVMRVTTGAPIPCGADAVVQVEDTELIRESDDGTEELEVRILVQARPGQDIRPIGHDIKRGECVLAKGTHMGPSEIGLLATVGVTEVEVNKFPVVAVMSTGNELLNPEDDLLPGKIRDSNRSTLLATIQEHGYPTINLGIVGDNPDDLLNALNEGISRADVIITSGGVSMGEKDYLKQVLDIDLHAQIHFGRVFMKPGLPTTFATLDIDGVRKIIFALPGNPVSAVVTCNLFVVPALRKMQGILDPRPTIIKARLSCDVKLDPRPEYHRCILTWHHQEPLPWAQSTGNQMSSRLMSMRSANGLLMLPPKTEQYVELHKGEVVDVMVIGRL | – | 6 |
| gephyrin, endogenous in U2OS cells (natural protein, human (endogenous in U2OS), UniProt Q9NQX3 1-736, looked up, human gephyrin, endogenous in U2OS osteosarcoma cells; also called endogenous gephyrin; source: endogenous, U2OS protein extract (cytosol)) MATEGMILTNHDHQIRVGVLTVSDSCFRNLAEDRSGINLKDLVQDPSLLGGTISAYKIVPDEIEEIKETLIDWCDEKELNLILTTGGTGFAPRDVTPEATKEVIEREAPGMALAMLMGSLNVTPLGMLSRPVCGIRGKTLIINLPGSKKGSQECFQFILPALPHAIDLLRDAIVKVKEVHDELEDLPSPPPPLSPPPTTSPHKQTEDKGVQCEEEEEEKKDSGVASTEDSSSSHITAAAIAAKIPDSIISRGVQVLPRDTASLSTTPSESPRAQATSRLSTASCPTPKVQSRCSSKENILRASHSAVDITKVARRHRMSPFPLTSMDKAFITVLEMTPVLGTEIINYRDGMGRVLAQDVYAKDNLPPFPASVKDGYAVRAADGPGDRFIIGESQAGEQPTQTVMPGQVMRVTTGAPIPCGADAVVQVEDTELIRESDDGTEELEVRILVQARPGQDIRPIGHDIKRGECVLAKGTHMGPSEIGLLATVGVTEVEVNKFPVVAVMSTGNELLNPEDDLLPGKIRDSNRSTLLATIQEHGYPTINLGIVGDNPDDLLNALNEGISRADVIITSGGVSMGEKDYLKQVLDIDLHAQIHFGRVFMKPGLPTTFATLDIDGVRKIIFALPGNPVSAVVTCNLFVVPALRKMQGILDPRPTIIKARLSCDVKLDPRPEYHRCILTWHHQEPLPWAQSTGNQMSSRLMSMRSANGLLMLPPKTEQYVELHKGEVVDVMVIGRL | – | 6 |
| gephyrin from liver tissue (natural protein, UniProt Q03555 1-768, looked up, gephyrin endogenous in liver tissue; source: endogenous, liver protein extract) MATEGMILTNHDHQIRVGVLTVSDSCFRNLAEDRSGINLKDLVQDPSLLGGTISAYKIVPDEIEEIKETLIDWCDEKELNLILTTGGTGFAPRDVTPEKFPTFPFCGLQKGATKEVIEREAPGMALAMLMGSLNVTPLGMLSRPVCGIRGKTLIINLPGSKKGSQECFQFILPALPHAIDLLRDAIVKVKEVHDELEDLPSPPPPLSPPPTTSPHKQTEDKGVQCEEEEEEKKDSGVASTEDSSSSHITAAALAAKIPDSIISRGVQVLPRDTASLSTTPSESPRAQATSRLSTASCPTPKQIRRPDESKGVASRVGSLKVQSRCSSKENILRASHSAVDITKVARRHRMSPFPLTSMDKAFITVLEMTPVLGTEIINYRDGMGRVLAQDVYAKDNLPPFPASVKDGYAVRAADGPGDRFIIGESQAGEQPTQTVMPGQVMRVTTGAPIPCGADAVVQVEDTELIRESDDGTEELEVRILVQARPGQDIRPIGHDIKRGECVLAKGTHMGPSEIGLLATVGVTEVEVNKFPVVAVMSTGNELLNPEDDLLPGKIRDSNRSTLLATIQEHGYPTINLGIVGDNPDDLLNALNEGISRADVIITSGGVSMGEKDYLKQVLDIDLHAQIHFGRVFMKPGLPTTFATLDIDGVRKIIFALPGNPVSAVVTCNLFVVPALRKMQGILDPRPTIIKARLSCDVKLDPRPEYHRCILTWHHQEPLPWAQSTGNQMSSRLMSMRSANGLLMLPPKTEQYVELHKGEVVDVMVIGRL | – | 6 |
